Measured values taken from paper PMC8727753, “Engineering of Reductive Aminases for Asymmetric Synthesis of Enantiopure Rasagiline” (Frontiers in Bioengineering and Biotechnology, 2021).

Assays:
O=C1CCc2ccccc21 = test system: T1, O=C1CCc2ccccc21; experiment: purified protein; assay type: biochemical, Aspergillus calidoustus; conditions: 20 mM propargylamine, 0.2 mM NADPH, 1% DMSO, 100 mM Tris-HCl pH 9.0
T1 construct: dimer in homology model

purified protein = substrate: O=C1CCc2ccccc21; experiment: purified protein; assay type: biochemical, Aspergillus calidoustus; conditions: 20 mM propargylamine, 0.2 mM NADPH, 1% DMSO, 100 mM Tris-HCl pH 9.0

Row | Molecule | Km (O=C1CCc2ccccc21) [µM] | kcat (O=C1CCc2ccccc21) [s⁻¹] | kcat/Km (O=C1CCc2ccccc21) [M⁻¹ s⁻¹] | Km (purified protein) [µM] | kcat (purified protein) [s⁻¹] | kcat/Km (purified protein) [M⁻¹ s⁻¹]
1 | AcRedAm (Aspergillus calidoustus; Y214M) | 12 ± 4 | 0.014 ± 0.002 | 1170 ± 21 |  |  | 
2 | AcRedAm (Aspergillus calidoustus; Q237A) | 9 ± 1 | 0.007 ± 0.001 | 778 ± 21 |  |  | 
3 | AcRedAm (Aspergillus calidoustus; W207C) | 18 ± 2 | 0.022 ± 0.001 | 1220 ± 44 |  |  | 
4 | AcRedAm (Aspergillus calidoustus; Q237G) | 4 ± 1 | 0.002 ± 0.001 | 500 ± 30 |  |  | 
5 | AcRedAm (Aspergillus calidoustus; W207S/Y214C) | 21 ± 4 | 0.026 ± 0.002 | 1240 ± 26 |  |  | 
6 | AcRedAm (Aspergillus calidoustus) (protein, dimer in homology model) MSTITLFGLGAMGKALAAKYIEKGYTTTIWNRTPSKAAPLVEKGAKLANTVGEGLASADLIILCLLDNASVRQTLDQATAALNGKTVINLTNGTPSQARETSEWVISHGAQYIHGGIMAVPDMIGSPHAVLLYSGESAETFSRVEAHLSHLGTSKFLGTDPGSASLHDLALLSGMYGLFSGFFHATALVKSQPGTTATGFVQLLTPWLSAMTHYLGALAKQIDEGDYATQGSNMAMQVTGVQNIVRASEEAGVTADLIMPILGRMTRAAEAGYADVDVSAVIEFMKE |  |  |  | 16 ± 4 | 0.017 ± 0.001 | 1060 ± 41
